Measurements reported in patent US10808024B2, “Antibodies against immunocomplexes comprising cyanobacterial cyclic peptide hepatotoxins” (priority 2015, dated 2020).
Numbering of substitutions follows the chain as printed. Entries after “also recorded” stand apart in the source; their conditions may differ.

B1: SA55D1: MC-LZ subgroup-specific anti-IC binder (antibody, V domains shown)
VH: EVQLLESGGGLVQPGGSLRLSCAASGFTFSSDVMHWVRQAPGKGLEWVSVISPYDGYTRYADSVKGRFTISRDNSKNTLYLQMNSLRAEDTAVYYCARHKGGYRRAYMDYWGQGTLVTVSS
VL: EIVLTQSPGTLSLSPGERATLSCRASQSVSSSALAWYQQKPGQAPRLLIYGASSRATGVPDRFSGSGSGTDFTLTISRLEPEDFAVYYCQQSYSYPWTFGQGTKVEIKRT
modifications: Clone SA55D1; DOMAIN (31)..(35) CDR1; DOMAIN (50)..(66) CDR2; DOMAIN (99)..(110) CDR3; DOMAIN (24)..(35) CDR1; DOMAIN (51)..(57) CDR2; DOMAIN (90)..(98) CDR3
B2: SA56B8: variant-specific anti-IC antibody, MC-LR (antibody, V domains shown)
VH: EVQLLESGGGLVQPGGSLRLSCAASGFTFSDYWMHWVRQAPGKGLEWVSYINPYGGYTDYADSVKGRFTISRDNSKNTLYLQMNSLRAEDTAVYYCARYVRRHFDYWGQGTLVTVSS
VL: B1 VL with A33Y, Y93S
modifications: Clone SA56B8; DOMAIN (31)..(35) CDR1; DOMAIN (50)..(66) CDR2; DOMAIN (99)..(106) CDR3; DOMAIN (24)..(35) CDR1; DOMAIN (51)..(57) CDR2; DOMAIN (90)..(98) CDR3
B3: SA32C11: variant-specific anti-IC antibody, Nod-R (antibody, V domains shown)
VH: EVQLLESGGGLVQPGGSLRLSCAASGFTFSDYWMHWVRQAPGKGLEWVSEINTSNGNTYYADSVKGRFTISRDNSKNTLYLQMNSLRAEDTAVYYCARESWWPYSFDYWGQGTLVTVSS
VL: B1 VL with A33N, Y93S, Y95L
modifications: Clone SA32C11; DOMAIN (31)..(35) CDR1; DOMAIN (50)..(66) CDR2; DOMAIN (99)..(108) CDR3; DOMAIN (24)..(35) CDR1; DOMAIN (51)..(57) CDR2; DOMAIN (90)..(98) CDR3
B4: SA41B5: variant-specific anti-IC antibody, MC-RR (antibody, V domains shown)
VH: EVQLLESGGGLVQPGGSLRLSCAASGFTFSSDVMHWVRQAPGKGLEWVSVINPYDGSTYYADSVKGRFTISRDNSKNTLYLQMNSLRAEDTAVYYCARAVAGQGGYFDYWGQGTLVTVSS
VL: B1 VL with A33N, Y93S, Y95L
modifications: Clone SA41B5; DOMAIN (31)..(35) CDR1; DOMAIN (50)..(66) CDR2; DOMAIN (99)..(109) CDR3; DOMAIN (24)..(35) CDR1; DOMAIN (51)..(57) CDR2; DOMAIN (90)..(98) CDR3
B5: SA58A12: XR subgroup-specific anti-IC antibody (antibody, V domains shown)
VH: EVQLLESGGGLVQPGGSLRLSCAASGFTFSNYGMHWVRQAPGKGLEWVSEIWPNNGTTNYADSVKGRFTISRDNSKNTLYLQMNSLRAEDTAVYYCARESGQWWYGVFDYWGQGTLVTVSS
VL: B1 VL with A33N, Y93S
modifications: Clone SA58A12; DOMAIN (31)..(35) CDR1; DOMAIN (50)..(65) CDR2; DOMAIN (98)..(110) CDR3; DOMAIN (24)..(35) CDR1; DOMAIN (51)..(57) CDR2; DOMAIN (90)..(98) CDR3
B6: SA34G1: variant-specific anti-IC antibody, Nod-R (antibody, V domains shown)
VH: B3 VH with N52I, T53P, S54Y, N55S, N57Y, Y59N, S100T, W102G, P103Y, Y104P
VL: B1 VL with A33N, Y93S, Y95T
modifications: Clone SA34G1; DOMAIN (31)..(35) CDR1; DOMAIN (50)..(66) CDR2; DOMAIN (99)..(108) CDR3; DOMAIN (24)..(35) CDR1; DOMAIN (51)..(57) CDR2; DOMAIN (90)..(98) CDR3
B7: SA44E11: anti-IC antibody recognizing immunocomplexes comprising MC-RR (antibody, V domains shown)
VH: EVQLLESGGGLVQPGGSLRLSCAASGFTFSDYYMHWVRQAPGKGLEWVSEISTYNGYTDYADSVKGRFTISRDNSKNTLYLQMNSLRAEDTAVYYCARGGEPGDDWGQGTLVTVSS
VL: B1 VL with S92Y, Y93S, Y95L
modifications: Clone SA44E11; DOMAIN (31)..(35) CDR1; DOMAIN (50)..(66) CDR2; DOMAIN (99)..(105) CDR3; DOMAIN (24)..(35) CDR1; DOMAIN (51)..(57) CDR2; DOMAIN (90)..(98) CDR3
B8: SA57D4: subgroup-specific anti-IC antibody (antibody, V domains shown)
VH: EVQLLESGGGLVQPGGSLRLSCAASGFTFSGYGMHWVRQAPGKGLEWVSAISDLNGSTYYADSVKGRFTISRDNSKNTLYLQMNSLRAEDTAVYYCARNGWGDMDLWGQGTLVTVSS
VL: B1 VL with Y95L
modifications: Clone SA57D4; DOMAIN (31)..(35) CDR1; DOMAIN (50)..(66) CDR2; DOMAIN (99)..(106) CDR3; DOMAIN (24)..(35) CDR1; DOMAIN (51)..(57) CDR2; DOMAIN (90)..(98) CDR3
B9: SA32F1: variant-specific anti-IC antibody, Nod-R (antibody, V domains shown)
VH: EVQLLESGGGLVQPGGSLRLSCAASGFTFSNYYMHWVRQAPGKGFEWVSSIITNGGETDYADSVKGRFTISRDNSKNTLYLQMNSLRAEDTAVYYCARLPVTRPYYAVFDYWGQGTLVTVSS
VL: B1 VL with Y93S
modifications: Clone SA32F1; DOMAIN (31)..(35) CDR1; DOMAIN (50)..(66) CDR2; DOMAIN (99)..(110) CDR3; DOMAIN (24)..(35) CDR1; DOMAIN (51)..(57) CDR2; DOMAIN (90)..(98) CDR3

Key:
Format in all cases: binding
[1] = system: immunocomplex of CCPH variant and biotinylated anti-Adda mAb; assay: Quantitative lateral flow test with streptavidin up-converting nanoparticles
[2] = system: immunocomplex of CCPH variant and biotinylated anti-Adda mAb; assay: Single-step non-competitive TR-IFMA with SA51D1 scFv-AP, toxin standards
[3] = system: anti-Adda mAb-MC-LR immunocomplex
[4] = system: immunocomplexes of MC-XZ and Nod-R with anti-Adda mAb; assay: Cross-reactivity profile of anti-IC binders by single-step non-competitive assay (FIG. 5); settings: toxin 0.1 to 60 μg/L
[5] = system: immunocomplexes of CCPH variants and anti-Adda mAb; assay: Screening and cross-reactivity studies of anti-IC scFv-AP binders, specificity class
[6] = system: CCPH in unknown water samples, immunocomplex with anti-Adda mAb; assay: Anti-IC immunoassay profiling of blinded water samples (Abraxis proficiency testing); settings: sample MC-TK8, MC-LR + MC-RR + MC-YR, 4 + 1 + 1 μg/l

Row | Molecule | Specificity (cross-reactive pattern) [4] | Specificity of anti-IC antibody (CCPH immunocomplexes recognized) [5] | other results
1 | C/C=C1/C(=O)N[C@@H](C(=O)O)[C@H](C)C(=O)N[C@@H](CCCNC(=N)N)C(=O)N[C@@H](/C=C/C(C)=C/[C@H](C)[C@H](Cc2ccccc2)OC)[C@H](C)C(=O)N[C@@H](C(=O)O)CCC(=O)N1C [Nodularin, reference compound] | – | – | Signal-to-background ratio [1]: 38
2 | MC-LA | – | – | Sensitivity [2]: 0.05 µg/L
3 | MC-LR | – | – | Sensitivity (blank+3SD) [3]: below 0.3 μg/L
4 | B1 | specific towards MC-XZ, where X=L (Leu) | MC-LZ subgroup-specific | –
5 | B2 | MC-LR and MC-dmLR specific | recognize immunocomplexes comprising MC-LR; also recorded: MC-LR specific | Signal (%) with MC-LW ([4]; MC-LW): below 20%
6 | B3 | specificity only towards Nod-R | recognize immunocomplexes comprising Nod-R; also recorded: nodularin-R specific | Recognition of nine CCPH variants in lateral flow test ([1]; each CCPH at 1 μg/l): Only Nodularin was recognized; Specific anti-IC assay result ([6]; listed as Nod5): not
7 | B4 | – | recognize immunocomplexes comprising MC-RR; also recorded: MC-RR specific | Specific anti-IC assay result [6]: positive
8 | B5 | specific towards MC-XZ where Z=R (Arg) and also towards Nod-R | specific for a subgroup XR | –
9 | B6 | – | recognize immunocomplexes comprising Nod-R | –
10 | B7 | – | recognize immunocomplexes comprising MC-RR | –
11 | B8 | – | subgroup-specific | –
12 | B9 | – | recognize immunocomplexes comprising Nod-R | –
